This is an account of results in patent publication US20020062500A1, “Hypersensitive response eliciting domains and use thereof” (priority 2000, published 2002).

Data set [1] in a line: Solubility of expressed or synthesized polypeptides. Format: physicochemical. The method, then:
For proteins expressed in E. coli that were difficult to dissolve in water, total cells were resuspended and sonicated in 8 M urea buffer (0. IM Na-phosphate, 10 mM Tris buffer, pH8.0). The total cell lysate was centrifuged, and supernatants were collected. Ni-agarose was added into the supernatants and mixed gently at room temperature for 30 min. The Ni-agarose resin was washed with buffer (8 M urea, 0.1 M Na-phosphate, 10 mM Tris buffer, pH6.3). The proteins were eluted with elution buffer (8 M urea, 0.1 M EDTA, 0.1 M Na-phosphate, 10 mM Tris buffer, pH 6.3) and dialyzed against buffer (pH 8.5, 10 mM Tris) with stepwise decreased urea. If the proteins still were insoluble in buffer, the solution pH was adjusted to 9 to 11 and sonicated at room temperature for 1 to 5 min.
Chemically synthesized polypeptides were dissolved in 10 mM Tris, pH 6.5 to 11 buffers depending on their solubility.

Data set [2] deals with tobacco leaves (cv. Xanth). The settings on record: in vivo.
For data set [3] the following is noted: description of known elicitors; cited from earlier work.
For data set [4] the following is noted: cited from earlier work; for heat stable (description): description of known elicitors.
The conditions of data set [5]: description of known elicitors; cited from earlier work. This is another data set of the same source.
The next data set deals with TMV. As to the kind of experiment: Percentage of TMV reduction on tobacco leaves. The format is in vivo.
The next data set relates to tomato. As to the kind of experiment: Plant growth enhancement with tomato. The settings on record: 10 μg/ml. Format: in vivo.
A further data set relates to tobacco. The settings on record: in vivo; cited from earlier work.

Ends that are not written are not given here. Peptide text beside a SMILES is read from it. A value given as a limit tells only on which side of the number the result lay.

For “(NC): Superharpin building block HrpNEa140-180 with his-tag leader (QNDDSTSGTDSTSDSSDPMQQLLKMFSEIMQSLFGDGQDGT; also: His-tag leader; UniProt Q01099 140-180, looked up, fragment)”, in data set [1] (Table 7, building blocks with his-tag leader), the Soluble result was “Yes”. For the molecule “HrpNEa140176: Synthesized peptide, amino acids 140-176 of HrpNEa, acidic plus helix units (QNDDSTSGTDSTSDSSDPMQQLLKMFSEIMQSLFGDG; UniProt Q01099 140-176, looked up, fragment)”, in data set [2], the “HR activity (eliciting concentration)” value is “+ < 5 μg/ml”, the “HR activity in tobacco” value is given as “full activity of HR” and the “HR* (eliciting concentration)” value was less than 5 µg/mL. “SEQ. ID. No. 8: Protein encoded by the dspE gene of Erwinia amylovora, about 198 kDa”: the “pI (description)” value in data set [3] was 8.98. Turning to “HrpNEa137180: E. coli expressed peptide, amino acids 137-180 of HrpNEa, His-tag fusion (STSQNDDSTSGTDSTSDSSDPMQQLLKMFSEIMQSLFGDGQDGT; also: His-tag fusion; UniProt Q01099 137-180, looked up, fragment)”, in data set [2], the “HR activity in tobacco” value is reported as “elicit HR activity” and the “HR* (eliciting concentration)” value was less than 5 µg/mL. Regarding “hypersensitive response elicitor polypeptide or protein from Xanthomonas campestris pv. pelargonii: 20 kDa elicitor that includes the amino acid sequence of SEQ. ID. No. 18 (SSQQSPSAGSEQQLDQLLAM; Xanthomonas campestris pv. pelargonii)”, the “heat stable (description)” value in data set [4] is “heat stable”. Besides, in data set [5], the protease sensitive result is “protease sensitive”. Take `CSCC[C@H](NC(=O)[C@H](CCSC)NC(=O)[C@H](CO)NC(=O)[C@H](CCSC)NC(=O)[C@H](CCSC)NC(=O)[C@H](CCSC)NC(=O)[C@H](CCSC)NC(=O)[C@H](CCSC)NC(=O)CNC(=O)[C@@H](NC(=O)[C@H](CC(C)C)NC(=O)[C@H](CC(C)C)NC(=O)CNC(=O)[C@H](C)NC(=O)[C@H](CC(C)C)NC(=O)[C@H](CCC(N)=O)NC(=O)[C@H](CC(N)=O)NC(=O)[C@@H](NC(=O)[C@@H](NC(=O)[C@H](CC(=O)O)NC(=O)[C@H](CC(N)=O)NC(=O)[C@H](CCC(N)=O)NC(=O)[C@H](CC(N)=O)NC(=O)CNC(=O)CNC(=O)CNC(=O)[C@H](CC(C)C)NC(=O)CN)[C@@H](C)O)C(C)C)[C@@H](C)O)C(=O)O` [HrpNEa4370] (H-GLGGGNQNDTVNQLAGLLTGMMMMMSMM-OH; N-terminus and C-terminus assumed): the “Solubility (Source column: Partial soluble)” value in data set [1] (Table 4, synthesized peptide, cell wraps over two lines 'Partial' 'soluble') is “Partial”.

B1: HrpNEa: Harpin hypersensitive response elicitor protein from E. amylovora, 403 amino acids (protein, listed as Erwinia amylovora)
chain: MSLNTSGLGASTMQISIGGAGGNNGLLGTSRQNAGLGGNSALGLGGGNQNDTVNQLAGLLTGMMMMMSMMGGGGLMGGGLGGGLGNGLGGSGGLGEGLSNALNDMLGGSLNTLGSKGGNNTTSTTNSPLDQALGINSTSQNDDSTSGTDSTSDSSDPMQQLLKMFSEIMQSLFGDGQDGTQGSSSGGKQPTEGEQNAYKKGVTDALSGLMGNGLSQLLGNGGLGGGQGGNAGTGLDGSSLGGKGLQNLSGPVDYQQLGNAVGTGIGMKAGIQALNDIGTHRHSSTRSFVNKGDRAMAKEIGQFMDQYPEVFGKPQYQKGPGQEVKTDDKSWAKALSKPDDDGMTPASMEQFNKAKGMIKRPMAGDTGNGNLQARGAGGSSLGIDAMMAGDAINNMALGKLGAA
As for B1, in data set [1] (Table 8), the Soluble result was “Yes”. In addition, the “heat stable at 100° C.” value in data set [4] (100° C.) is reported as “at least 10 minutes”. Further, the “% TMV reduction on tobacco” value with TMV (1 μg/ml) was determined as 10%; with TMV (10 μg/ml) it was 55%. Also, the “Elicit HR” value in data set [2] was 1—3 μg/ml. Moreover, the “pI (description)” value in data set [3] is listed as “approximately 4.3”. The “% Plant Growth Enhancement” value with tomato stood at 11.68%.

B2: amino acids 137 to 204 of HrpNEa: HR active fragment of HrpNEa isolated after digestion with protease (protein, UniProt Q01099 137-204, looked up, fragment)
chain: STSQNDDSTSGTDSTSDSSDPMQQLLKMFSEIMQSLFGDGQDGTQGSSSGGKQPTEGEQNAYKKGVTD
Consider B2, for which the “HR elicitation (literature)” value in the data set with tobacco is “hypersensitive response active”.

B3: 98 residue of N-terminal HrpNEa fragment: Smallest bacterially produced HrpNEa peptide with HR-eliciting activity (Laby 1997) (protein, UniProt Q01099 1-98, looked up, fragment)
chain: MSLNTSGLGASTMQISIGGAGGNNGLLGTSRQNAGLGGNSALGLGGGNQNDTVNQLAGLLTGMMMMMSMMGGGGLMGGGLGGGLGNGLGGSGGLGEGL
As to B3, in the data set with tobacco, the “HR elicitation (literature)” value is listed as “displayed HR-eliciting activity”.

B4: SEQ. ID. No. 10: Protein encoded by the dspF gene, about 16 kDa (protein, listed as Erwinia amylovora)
chain: MTSSQQRVERFLQYFSAGCKTPIHLKDGVCALYNEQDEEAAVLEVPQHSDSLLLHCRIIEADPQTSITLYSMLLQLNFEMAAMRGCWLALDELHNVRLCFQQSLEHLDEASFSDIVSGFIEHAAEVREYIAQLDESSAA
For B4, in data set [3], the “pI (description)” value is recorded as 4.45.

B5: HrpWEa: Harpin protein from E. amylovora, subfamily W, 447 amino acids (protein, listed as Erwinia amylovora)
chain: MSILTLNNNTSSSPGLFQSGGDNGLGGHNANSALGQQPIDRQTIEQMAQLLAELLKSLLSPQSGNAATGAGGNDQTTGVGNAGGLNGRKGTAGTTPQSDSQNMLSEMGNNGLDQAITPDGQGGGQIGDNPLLKAMLKLIARMMDGQSDQFGQPGTGNNSASSGTSSSGGSPFNDLSGGKAPSGNSPSGNYSPVSTFSPPSTPTSPTSPLDFPSSPTKAAGGSTPVTDHPDPVGSAGIGAGNSVAFTSAGANQTVLHDTITVKAGQVFDGKGQTFTAGSELGDGGQSENQKPLFILEDGASLKNVTMGDDGADGIHLYGDAKIDNLHVTNVGEDAITVKPNSAGKKSHVEITNSSFEHASDKILQLNADTNLSVDNVKAKDFGTFVRTNGGQQGNWDLNLSHISAEDGKFSFVKSDSEGLNVNTSDISLGDVENHYKVPMSANLKVAE
On to B5, for which the “heat stable (description)” value in data set [4] is on record as “heat stable”. Further, the protease sensitive result in data set [5] is “protease sensitive”.

B6: HrpNEch: Harpin protein from E. chrysanthemi, subfamily N (protein, listed as Erwinia chrysanthemi)
chain: MQITIKAHIGGDLGVSGLGAQGLKGLNSAASSLGSSVDKLSSTIDKLTSALTSMMFGGALAQGLGASSKGLGMSNQLGQSFGNGAQGASNLLSVPKSGGDALSKMFDKALDDLLGHDTVTKLTNQSNQLANSMLNASQMTQGNMNAFGSGVNNALSSILGNGLGQSMSGFSQPSLGAGGLQGLSGAGAFNQLGNAIGMGVGQNAALSALSNVSTHVDGNNRHFVDKEDRGMAKEIGQFMDQYPEIFGKPEYQKDGWSSPKTDDKSWAKALSKPDDDGMTGASMDKFRQAMGMIKSAVAGDTGNTNLNLRGAGGASLGIDAAVVGDKIANMSLGKLANA
On to B6, for which the “heat stable (description)” value in data set [4] is reported as “heat stable”.
